Here are results for 47 molecules from patent publication US20260274955A1 (JANUX THERAPEUTICS, published 2026).

One assay deals with Anti-CD28 Fab (SEQ ID NOs: 202, 203). The experiment in a line: phage binding ELISA on captured Fab.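 Also: clonal phage supernatants added briefly to wells pre-incubated with CD28 antigen or with blocking buffer only, then washed, bound phage read by ELISA using HRP-coupled anti-M13 antibody.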 For orientation: In an ELISA, binding on a coated surface is turned into a signal by an enzyme label.
Chain of Anti-CD28 Fab (SEQ ID NOs: 202, 203) (VH, as listed by the source, chain 1 of 2): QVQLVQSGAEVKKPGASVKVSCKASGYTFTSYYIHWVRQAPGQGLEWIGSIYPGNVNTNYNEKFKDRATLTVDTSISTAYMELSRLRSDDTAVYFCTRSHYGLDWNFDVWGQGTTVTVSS
Chain of Anti-CD28 Fab (SEQ ID NOs: 202, 203) (VL, as listed by the source, chain 2 of 2): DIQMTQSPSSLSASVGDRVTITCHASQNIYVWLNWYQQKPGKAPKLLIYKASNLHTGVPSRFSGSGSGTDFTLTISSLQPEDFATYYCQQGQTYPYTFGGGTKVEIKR
Procedure: (§1) Clonal phage were harvested as crude supernatants and screened via standard ELISAs. […] Prior to the addition of clonal phage, wells were incubated with blocking buffer and CD28 antigen or blocking buffer alone. Without washing or aspirating, clonal phage supernatants were then added to the wells and incubated for a short time. Wells were then washed followed by detection of bound phage using a horse radish conjugated anti-M13 antibody.
In the case of YCDGHTLEYMWKCL [Phage-95], the “Anti-CD28 Fab signal” value is 2.31.
As for YCDGHAPEYMEKCM [Phage-148], the “Anti-CD28 Fab signal” value was determined as 2.21.
Same read-out and setting: next, YCEGHLPEYLEKCV [Phage-41]: 2.11; YCEGHSEEYISKCL [Phage-99]: 2.3; YCDGHRGEYLQKCL [Phage-141]: 2.22.
With YCAGHSPEHMWKCL [Phage-98], the “Anti-CD28 Fab signal” value was 2.3.
On to YCDGHAPEYMMKCL [Phage-61], for which the “Anti-CD28 Fab signal” value was 2.39.
Take YCDGHLPEYQEKCL [Phage-71]: the “Anti-CD28 Fab signal” value was 2.37.
YCEGHSPEYMSKCL [Phage-89]: the “Anti-CD28 Fab signal” value was 2.31.
As for YCEGHLPEYMWKCL [Phage-62], the “Anti-CD28 Fab signal” value stood at 2.39.
On to YCDGHLPEYMSKCM [Phage-66], for which the “Anti-CD28 Fab signal” value was determined as 2.38.
On to YCEGHLPLYMWKCL [Phage-96], for which the “Anti-CD28 Fab signal” value is 2.3.
Regarding YCDGHLPIYMAKCL [Phage-100], the “Anti-CD28 Fab signal” value was determined as 2.3.
As to YCEGHSPQYMWKCL [Phage-142], the “Anti-CD28 Fab signal” value amounted to 2.22.
Turning to YCDGHLPIYMSQCL [Phage-73], the “Anti-CD28 Fab signal” value came out at 2.36.
Consider YCMGHAPEYMAKCL [Phage-68], for which the “Anti-CD28 Fab signal” value turned out to be 2.38.
For the molecule YCDGHLDEYMAKCL [Phage-94], the “Anti-CD28 Fab signal” value turned out to be 2.31.
Same read-out and setting: next, YCEGHLPQYMKKCL [Phage-144]: 2.22.
Take YCAGHLPQYMSKCL [Phage-72]: the “Anti-CD28 Fab signal” value was 2.37.
On to YCDGHLPEYLAKCL [Phage-64], for which the “Anti-CD28 Fab signal” value was 2.38.
For YCEGHAAEYMTKCL [Phage-143], the “Anti-CD28 Fab signal” value is 2.22.
Still for that read-out and setting: next, YCEGHAAEYMAKCL [Phage-63]: 2.38.
YCEGHAPEYMLKCL [Phage-146]: the “Anti-CD28 Fab signal” value worked out at 2.21.
In the case of YCEGHSQEYLWKCL [Phage-36], the “Anti-CD28 Fab signal” value was determined as 2.36.
Take YCDGHIEEYRAKCL [Phage-145]: the “Anti-CD28 Fab signal” value came out at 2.21.
With YCEGHSSEYIQKCL [Phage-37], the “Anti-CD28 Fab signal” value is 2.25.
On the same count and under the same terms, next, YCDGHSPQYIEKCL [Phage-92]: 2.31; YCEGHTMEYMWKCL [Phage-90]: 2.31; YCEGHTVEYMAKCL [Phage-149]: 2.2.
As to YCAGHMPEYMAKCL [Phage-65], the “Anti-CD28 Fab signal” value turned out to be 2.38.
Regarding YCEGHSQENIWKCL [Phage-32], the “Anti-CD28 Fab signal” value turned out to be 1.41.
On to YCDGHEPQYMLKCL [Phage-88], for which the “Anti-CD28 Fab signal” value turned out to be 2.32.
Consider YCAGHLPEYMPHCI [Phage-91], for which the “Anti-CD28 Fab signal” value worked out at 2.31.
Consider YCWSHSPPFIKKCY [Phage-39], for which the “Anti-CD28 Fab signal” value amounted to 2.06.
As for HCSGHHWLQVWKCF [Phage-38], the “Anti-CD28 Fab signal” value came out at 2.31.
As for YCEGHTAEYMQKCL [Phage-67], the “Anti-CD28 Fab signal” value was found to be 2.38.
Same read-out and setting: next, YCDGHSWEYIGKCL [Phage-70]: 2.37.

The target of the next assay is anti-CD28 Fab (SEQ ID NOs: 202, 203). The experiment in a line: phage ELISA, Fab on plate.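 Also: ELISA of crude clonal phage supernatants on the plate, wells preloaded with CD28 antigen or only blocking buffer, captured phage read out via HRP-linked anti-M13 antibody.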
Chain of anti-CD28 Fab (SEQ ID NOs: 202, 203) (VH, as listed by the source, chain 1 of 2): as the sequence (VH, as listed by the source, chain 1 of 2) above
Chain of anti-CD28 Fab (SEQ ID NOs: 202, 203) (VL, as listed by the source, chain 2 of 2): as the sequence (VL, as listed by the source, chain 2 of 2) above
For the molecule ICAAGFIWSWPACF [Phage-1101], the “Anti-CD28 Fab signal” value was 1.51.
In the case of TCAAGVHFGWPLCF [Phage-1107], the “Anti-CD28 Fab signal” value turned out to be 1.49.
For TCAAGAHYLWPHCL [Phage-1104], the “Anti-CD28 Fab signal” value worked out at 1.5.
The same measure, in the same setting: next, SCAAGAHYKWPVCI [Phage-1100]: 1.51; QCAAGAMWTWPVCF [Phage-1103]: 1.5; RCAAGAMWTWPACF [Phage-1179]: 1.25.
For the molecule PCAAGAMWAWPYCL [Phage-1105], the “Anti-CD28 Fab signal” value was determined as 1.49.
For the molecule TCSAGATYSWPSCF [Phage-1187], the “Anti-CD28 Fab signal” value came out at 1.21.
Still for that read-out and setting: next, TCSAGATYTWPSCF [Phage-1125]: 1.42; TCAAGATYSWPDCF [Phage-1102]: 1.51.

For the next assay the target is unchanged. The experiment in a line: phage ELISA, Fab on plate, CD28 antigen as competitor.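 Also: wells pre-incubated with CD28 antigen in blocking buffer (reference: blocking buffer only) before adding crude clonal phage supernatant, bound phage read with HRP-coupled anti-M13 antibody.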
Procedure: After panning, phage infected bacteria were plated out and colonies picked into 96 well blocks. Clonal phage was then amplified and separated from bacterial cells via centrifugation.
Clonal phage were harvested as crude supernatants and screened via standard ELISAs. […] Prior to the addition of clonal phage, wells were incubated with blocking buffer and CD28 antigen or blocking buffer alone. Without washing or aspirating, clonal phage supernatants were then added to the wells and incubated for a short time. Wells were then washed followed by detection of bound phage using a horse radish conjugated anti-M13 antibody. Clonal phage of interest were then sent for sequence analysis.
On to ICAAGFIWSWPACF [Phage-1101], for which the “Anti-CD28 Fab signal in the presence of CD28” value (from here on “Anti-CD28 Fab signal … of CD28”) was 0.08.
In the case of TCAAGVHFGWPLCF [Phage-1107], the “Anti-CD28 Fab signal … of CD28” value worked out at 0.07.
Turning to TCAAGAHYLWPHCL [Phage-1104], the “Anti-CD28 Fab signal … of CD28” value was determined as 0.12.
SCAAGAHYKWPVCI [Phage-1100]: the “Anti-CD28 Fab signal … of CD28” value is 0.06.
In the case of QCAAGAMWTWPVCF [Phage-1103], the “Anti-CD28 Fab signal … of CD28” value came to 0.07.
In the case of RCAAGAMWTWPACF [Phage-1179], the “Anti-CD28 Fab signal … of CD28” value was found to be 0.06.
Turning to PCAAGAMWAWPYCL [Phage-1105], the “Anti-CD28 Fab signal … of CD28” value was 0.05.
As to TCSAGATYSWPSCF [Phage-1187], the “Anti-CD28 Fab signal … of CD28” value was determined as 0.09.
Regarding TCSAGATYTWPSCF [Phage-1125], the “Anti-CD28 Fab signal … of CD28” value came to 0.06.
On the same count and under the same terms, next, TCAAGATYSWPDCF [Phage-1102]: 0.06.

A further assay has as its target Anti-CD28 Fab (SEQ ID NOs: 202, 203). In words: phage binding ELISA on captured Fab; competitor CD28 antigen.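 Also: clonal phage supernatants added briefly to wells pre-incubated with CD28 antigen or with blocking buffer only, then washed, bound phage read by ELISA using HRP-coupled anti-M13 antibody.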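 Also: wells pretreated with CD28 antigen in blocking buffer or buffer only, then clonal phage supernatants added briefly without washing, bound phage detected via horseradish-conjugated anti-M13 antibody.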
Procedure: as §1
As to YCDGHTLEYMWKCL [Phage-95], the “Anti-CD28 Fab signal … of CD28” value amounted to 0.13.
On the same count and under the same terms, next, YCDGHAPEYMEKCM [Phage-148]: 0.07; YCEGHLPEYLEKCV [Phage-41]: 0.06.
Turning to YCEGHSEEYISKCL [Phage-99], the “Anti-CD28 Fab signal … of CD28” value worked out at 0.08.
Consider YCDGHRGEYLQKCL [Phage-141], for which the “Anti-CD28 Fab signal … of CD28” value was determined as 0.09.
Take YCAGHSPEHMWKCL [Phage-98]: the “Anti-CD28 Fab signal … of CD28” value was 0.06.
For YCDGHAPEYMMKCL [Phage-61], the “Anti-CD28 Fab signal … of CD28” value is 0.09.
The same measure, in the same setting: next, YCDGHLPEYQEKCL [Phage-71]: 0.1; YCEGHSPEYMSKCL [Phage-89]: 0.07; YCEGHLPEYMWKCL [Phage-62]: 0.08.
With YCDGHLPEYMSKCM [Phage-66], the “Anti-CD28 Fab signal … of CD28” value turned out to be 0.14.
For YCEGHLPLYMWKCL [Phage-96], the “Anti-CD28 Fab signal … of CD28” value stood at 0.07.
For the molecule YCDGHLPIYMAKCL [Phage-100], the “Anti-CD28 Fab signal … of CD28” value is 0.14.
Same read-out and setting: next, YCEGHSPQYMWKCL [Phage-142]: 0.12.
In the case of YCDGHLPIYMSQCL [Phage-73], the “Anti-CD28 Fab signal … of CD28” value is 0.12.
On to YCMGHAPEYMAKCL [Phage-68], for which the “Anti-CD28 Fab signal … of CD28” value is 0.09.
Regarding YCDGHLDEYMAKCL [Phage-94], the “Anti-CD28 Fab signal … of CD28” value was 0.08.
Turning to YCEGHLPQYMKKCL [Phage-144], the “Anti-CD28 Fab signal … of CD28” value came to 0.1.
As to YCAGHLPQYMSKCL [Phage-72], the “Anti-CD28 Fab signal … of CD28” value came out at 0.11.
As for YCDGHLPEYLAKCL [Phage-64], the “Anti-CD28 Fab signal … of CD28” value amounted to 0.11.
As for YCEGHAAEYMTKCL [Phage-143], the “Anti-CD28 Fab signal … of CD28” value was determined as 0.08.
With YCEGHAAEYMAKCL [Phage-63], the “Anti-CD28 Fab signal … of CD28” value turned out to be 0.08.
As for YCEGHAPEYMLKCL [Phage-146], the “Anti-CD28 Fab signal … of CD28” value amounted to 0.07.
For YCEGHSQEYLWKCL [Phage-36], the “Anti-CD28 Fab signal … of CD28” value came out at 0.07.
Regarding YCDGHIEEYRAKCL [Phage-145], the “Anti-CD28 Fab signal … of CD28” value came to 0.07.
With YCEGHSSEYIQKCL [Phage-37], the “Anti-CD28 Fab signal … of CD28” value is 0.1.
YCDGHSPQYIEKCL [Phage-92]: the “Anti-CD28 Fab signal … of CD28” value turned out to be 0.07.
Consider YCEGHTMEYMWKCL [Phage-90], for which the “Anti-CD28 Fab signal … of CD28” value was 0.07.
Turning to YCEGHTVEYMAKCL [Phage-149], the “Anti-CD28 Fab signal … of CD28” value was 0.08.
Take YCAGHMPEYMAKCL [Phage-65]: the “Anti-CD28 Fab signal … of CD28” value stood at 0.11.
For the molecule YCEGHSQENIWKCL [Phage-32], the “Anti-CD28 Fab signal … of CD28” value is 0.07.
Regarding YCDGHEPQYMLKCL [Phage-88], the “Anti-CD28 Fab signal … of CD28” value came out at 0.12.
As for YCAGHLPEYMPHCI [Phage-91], the “Anti-CD28 Fab signal … of CD28” value came to 0.09.
As for YCWSHSPPFIKKCY [Phage-39], the “Anti-CD28 Fab signal … of CD28” value is 0.06.
The same measure, in the same setting: next, HCSGHHWLQVWKCF [Phage-38]: 0.07; YCEGHTAEYMQKCL [Phage-67]: 0.08.
With YCDGHSWEYIGKCL [Phage-70], the “Anti-CD28 Fab signal … of CD28” value amounted to 0.07.
